Drawing on the supplement of paper PMC10567573, this text covers protein stability index for 94 variants.

B1: FAM46C (parent)
chain: FDHLQNRLIATKNPEEIRGGGLLK
B2: SLC35F2 (parent)
chain: QYLAERYKVNTPMLQSFINYCLLF
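Also: lentivirally expressed fusions sorted by FACS into six bins by GFP to DsRed ratio, PSI derived from sequencing read proportions per bin multiplied by bin number.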

The variants in the first data set derive from B1. Description: protein stability index of a GFP-peptide fusion (GPS, HEK-293T) (PSI 1-6); higher = more stable. The following applies: c terminus: a fixed tail appended.
As to FDHLQNRLIATANPEEIRGGGLLK [K12A], the protein stability index is 3.68.
Same read-out and setting: under FDHLQNRLIATKWPEEIRGGGLLK [N13W] stands 3.14.
The same measure, in the same setting: under FDHLQNRLITTKNPEEIRGGGLLK [A10T] stands 3.88.
Consider FDHLQCRLIATKNPEEIRGGGLLK [N6C], for which the protein stability index is 1.88.
The same measure, in the same setting: the same measure for FDHLQNRLIATKNPEEIRGGGELK [L22E]: 4.3.
On the same count and under the same terms, under FDHLQNRLIATKNPEEIRGGGILK [L22I] stands 4.01; under FDHLQNRLIATKNPEEIRGGGNLK [L22N], 4.57.
On the same count and under the same terms, the same measure for FDHLQNRVIATKNPEEIRGGGLLK [L8V]: 2.97.
For FDHLQNRLIATKNPERIRGGGLLK [E16R], the protein stability index is 3.47.
The same measure, in the same setting: under FDHLQNRLIATKNMEEIRGGGLLK [P14M] stands 3.66.
On the same count and under the same terms, under FDHLQNRLIATKNAEEIRGGGLLK [P14A] stands 3.69.
For FDHMQNRLIATKNPEEIRGGGLLK [L4M], the protein stability index was determined as 4.04.
For FDHLQNRLIATKNPEECRGGGLLK [I17C], the protein stability index was 4.18.
On to FDHLQNRLIATKNPEESRGGGLLK [I17S], for which the protein stability index stood at 4.35.
Still for that read-out and setting: the same measure for FDHLQNRLIATKNPEEIRGGELLK [G21E]: 3.93.

A further data set covers variants of B2. The data set is described as above. The following applies: c terminus: a fixed tail appended.
With QYLAGRYKVNTPMLQSFINYCLLF [E5G], the protein stability index is 2.03.
As to QYLALRYKVNTPMLQSFINYCLLF [E5L], the protein stability index amounted to 2.72.
Still for that read-out and setting: the same measure for QYLADRYKVNTPMLQSFINYCLLF [E5D]: 2.88; for QYLAMRYKVNTPMLQSFINYCLLF [E5M]: 4.24.
Still for that read-out and setting: under QYLAVRYKVNTPMLQSFINYCLLF [E5V] stands 4.14; under QYLAPRYKVNTPMLQSFINYCLLF [E5P], 2.34.
The same measure, in the same setting: the same measure for QYLAIRYKVNTPMLQSFINYCLLF [E5I]: 3.06.
Take QYLAQRYKVNTPMLQSFINYCLLF [E5Q]: the protein stability index came to 2.72.
Still for that read-out and setting: the same measure for QYLANRYKVNTPMLQSFINYCLLF [E5N]: 2.62; for QYLAWRYKVNTPMLQSFINYCLLF [E5W]: 2.54; for QYLACRYKVNTPMLQSFINYCLLF [E5C]: 3.78.
Same read-out and setting: under QYLAFRYKVNTPMLQSFINYCLLF [E5F] stands 3.74; under QYLATRYKVNTPMLQSFINYCLLF [E5T], 2.14.
The same measure, in the same setting: the same measure for QYLAKRYKVNTPMLQSFINYCLLF [E5K]: 1.96; for QYLAHRYKVNTPMLQSFINYCLLF [E5H]: 3.1; for QYLASRYKVNTPMLQSFINYCLLF [E5S]: 2.14.
Take QYLAARYKVNTPMLQSFINYCLLF [E5A]: the protein stability index amounted to 3.18.
For QYLAYRYKVNTPMLQSFINYCLLF [E5Y], the protein stability index came to 2.14.
Still for that read-out and setting: under QYLARRYKVNTPMLQSFINYCLLF [E5R] stands 3.95; under QYLAERYKVDTPMLQSFINYCLLF [N10D], 2.83; under QYLAERYKVETPMLQSFINYCLLF [N10E], 2.2.
Same read-out and setting: under QYLAERYKVATPMLQSFINYCLLF [N10A] stands 2.09.
On the same count and under the same terms, under QYLAERYKVCTPMLQSFINYCLLF [N10C] stands 2.2; under QYLAERYKVFTPMLQSFINYCLLF [N10F], 2.88; under QYLAERYTVNTPMLQSFINYCLLF [K8T], 2.43.
Turning to QYLAERYFVNTPMLQSFINYCLLF [K8F], the protein stability index was determined as 3.46.
Still for that read-out and setting: the same measure for QYLAERYLVNTPMLQSFINYCLLF [K8L]: 2.87; for QYLAERYGVNTPMLQSFINYCLLF [K8G]: 2.38; for QYLAERYMVNTPMLQSFINYCLLF [K8M]: 2.75.
On the same count and under the same terms, the same measure for QYLAERYVVNTPMLQSFINYCLLF [K8V]: 2.61; for QYLAERYCVNTPMLQSFINYCLLF [K8C]: 3.39; for QYLAERYPVNTPMLQSFINYCLLF [K8P]: 2.35.
Same read-out and setting: the same measure for QYLAERYAVNTPMLQSFINYCLLF [K8A]: 2.54.
Regarding QYLAERYRVNTPMLQSFINYCLLF [K8R], the protein stability index was found to be 1.63.
Regarding QYLAERYQVNTPMLQSFINYCLLF [K8Q], the protein stability index is 2.13.
As to QYLAERYHVNTPMLQSFINYCLLF [K8H], the protein stability index came out at 2.64.
With QYLAERYNVNTPMLQSFINYCLLF [K8N], the protein stability index turned out to be 2.22.
Still for that read-out and setting: under QYLAERYSVNTPMLQSFINYCLLF [K8S] stands 3.15; under QYLAERYYVNTPMLQSFINYCLLF [K8Y], 3.27.
The same measure, in the same setting: the same measure for QYLAERYEVNTPMLQSFINYCLLF [K8E]: 2.04.
On the same count and under the same terms, under QYLAERYWVNTPMLQSFINYCLLF [K8W] stands 2.55; under QYLAERYDVNTPMLQSFINYCLLF [K8D], 2.44.
With QYLAERYKENTPMLQSFINYCLLF [V9E], the protein stability index is 2.65.
Same read-out and setting: under QYLAERYKHNTPMLQSFINYCLLF [V9H] stands 2.48.
Still for that read-out and setting: under QYLAERYKPNTPMLQSFINYCLLF [V9P] stands 2.24.
On the same count and under the same terms, under QYLAERYKRNTPMLQSFINYCLLF [V9R] stands 1.86.
In the case of QYLAERYKQNTPMLQSFINYCLLF [V9Q], the protein stability index is 2.87.
Same read-out and setting: the same measure for QYLAERYKSNTPMLQSFINYCLLF [V9S]: 2.58; for QYLAERYKKNTPMLQSFINYCLLF [V9K]: 2.37; for QYLAERYKFNTPMLQSFINYCLLF [V9F]: 3.49.
Still for that read-out and setting: under QYLAERYKCNTPMLQSFINYCLLF [V9C] stands 2.68.
Still for that read-out and setting: the same measure for QYLAERYKWNTPMLQSFINYCLLF [V9W]: 1.98; for QYLAERYKANTPMLQSFINYCLLF [V9A]: 1.65; for QYLAERYKMNTPMLQSFINYCLLF [V9M]: 2.54.
For the variant QYLAERYKGNTPMLQSFINYCLLF [V9G], the protein stability index was 2.3.
On the same count and under the same terms, under QYLAERYKDNTPMLQSFINYCLLF [V9D] stands 1.8; under QYLAERYKINTPMLQSFINYCLLF [V9I], 2.51; under QYLAERYKNNTPMLQSFINYCLLF [V9N], 2.23.
Same read-out and setting: the same measure for QYLAERYKTNTPMLQSFINYCLLF [V9T]: 2.4; for QYLAERYKYNTPMLQSFINYCLLF [V9Y]: 2.06.
Same read-out and setting: under QYLAERYKLNTPMLQSFINYCLLF [V9L] stands 2.6.
Take QYLAETYKVNTPMLQSFINYCLLF [R6T]: the protein stability index turned out to be 2.97.
With QYLAEGYKVNTPMLQSFINYCLLF [R6G], the protein stability index amounted to 2.
The same measure, in the same setting: the same measure for QYLAESYKVNTPMLQSFINYCLLF [R6S]: 2.94.
The same measure, in the same setting: under QYLAEYYKVNTPMLQSFINYCLLF [R6Y] stands 1.16; under QYLAECYKVNTPMLQSFINYCLLF [R6C], 2.86.
Still for that read-out and setting: the same measure for QYLAEIYKVNTPMLQSFINYCLLF [R6I]: 2.56; for QYLAEDYKVNTPMLQSFINYCLLF [R6D]: 1.99.
With QYLAENYKVNTPMLQSFINYCLLF [R6N], the protein stability index turned out to be 3.2.
As to QYLAEKYKVNTPMLQSFINYCLLF [R6K], the protein stability index was found to be 2.42.
Take QYLAELYKVNTPMLQSFINYCLLF [R6L]: the protein stability index came to 2.11.
Take QYLAEHYKVNTPMLQSFINYCLLF [R6H]: the protein stability index was determined as 3.38.
For the variant QYLAEMYKVNTPMLQSFINYCLLF [R6M], the protein stability index was found to be 2.25.
Still for that read-out and setting: the same measure for QYLAEAYKVNTPMLQSFINYCLLF [R6A]: 2.7; for QYLAEEYKVNTPMLQSFINYCLLF [R6E]: 2.72.
Same read-out and setting: the same measure for QYLAEPYKVNTPMLQSFINYCLLF [R6P]: 3.62; for QYLAEQYKVNTPMLQSFINYCLLF [R6Q]: 2.34; for QYLAEWYKVNTPMLQSFINYCLLF [R6W]: 2.51.
On the same count and under the same terms, under QYLAEVYKVNTPMLQSFINYCLLF [R6V] stands 2.92.
